The results in this text go back to patent US20160002357A1 (Pfizer, published 2016).

Where a chain is given by its changes, count along the chain named.

For experiment [1], the target named is T1, human P-cadherin, cell surface expressed (human, UniProt P22223 108-829). As to the kind of experiment: cell-based or functional assay.
The target of experiment [2] is T2, cynomolgus monkey P-cadherin ECD (cynomolgus monkey).
T2 construct: extracellular domain; also called cyno P-cadherin ECD; Cyno P-cadherin
As to the kind of experiment: SPR Biacore. How it is done: Binding affinity of EK-DART proteins to P-cadherin and CD3 was analyzed by SPR using a BIACORE® 3000 biosensor (GE Healthcare). The antigens huCD3εδ and either human P-cadherin-Fc or human/cynomolgus monkey/murine P-cadherin-ECD were immobilized on the CM-5 sensor chip by amine coupling kit as recommended by the manufacturer. […] All EK-DART proteins in Tables 15 and 16 comprise CD3-2.
All EK-DART proteins in Table 17 comprise CD3-2.

The target in experiment [3] is T1, human P-cadherin, cell surface expressed. As to the kind of experiment: cell-based or functional assay. This is another data set of the same source.

T1 sequence (P22223 108-829): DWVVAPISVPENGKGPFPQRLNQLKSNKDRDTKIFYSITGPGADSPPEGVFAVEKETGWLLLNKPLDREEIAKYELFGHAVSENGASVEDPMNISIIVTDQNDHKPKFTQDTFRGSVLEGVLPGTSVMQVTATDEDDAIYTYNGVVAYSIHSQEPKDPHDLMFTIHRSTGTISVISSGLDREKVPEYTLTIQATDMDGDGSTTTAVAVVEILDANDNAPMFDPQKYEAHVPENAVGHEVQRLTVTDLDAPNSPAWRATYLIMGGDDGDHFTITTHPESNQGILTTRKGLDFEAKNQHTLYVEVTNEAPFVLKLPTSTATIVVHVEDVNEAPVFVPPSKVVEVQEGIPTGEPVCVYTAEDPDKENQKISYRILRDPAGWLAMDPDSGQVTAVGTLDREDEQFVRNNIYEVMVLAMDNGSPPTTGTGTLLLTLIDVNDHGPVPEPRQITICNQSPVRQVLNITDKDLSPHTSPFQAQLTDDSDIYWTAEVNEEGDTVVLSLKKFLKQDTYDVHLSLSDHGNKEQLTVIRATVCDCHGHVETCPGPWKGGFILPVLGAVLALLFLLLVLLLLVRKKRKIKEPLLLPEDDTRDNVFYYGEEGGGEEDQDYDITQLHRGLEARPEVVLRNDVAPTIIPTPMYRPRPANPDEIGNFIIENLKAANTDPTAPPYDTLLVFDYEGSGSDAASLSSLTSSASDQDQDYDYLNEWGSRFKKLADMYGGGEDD

B1: 33 EK-DART (P-CAD 33 x CD3-2) (bispecific antibody)
chain 1: QSVLTQPPSVSAAPGQKVTISCSGSSSNIGNNYVSWYQQLPGTAPKLLIYDNNKRPSGIPDRFSGSKSGTSATLGITGLQTGDEADYYCGTWDSSLSAYVFGTGTKVTVLGGGSGGGGEVQLVESGGGLVQPGGSLRLSCAASGFTFNTYAMNWVRQAPGKGLEWVARIRSKYNNYATYYADSVKDRFTISRDDSKNSLYLQMNSLKTEDTAVYYCVRHGNFGNSYVSWFAYWGQGTLVTVSSGGCGGGKVAALKEKVAALKEKVAALKEKVAALKE
chain 2: QAVVTQEPSLTVSPGGTVTLTCRSSTGAVTTSNYANWVQQKPGQAPRGLIGGTNKRAPWTPARFSGSLLGGKAALTITGAQAEDEADYYCALWYSNLWVFGGGTKLTVLGGGGSGGGGQMQLVQSGAEVKKPGASVKVSCKASGYTFTSYGISWVRQAPGQGLEWMGWISAYNGNTNYAQKLQGRVTMTTDTSTSTAYMELRSLRSDDTAVYYCALIGSGVAFDIWGQGTMVTVSSGGCGGGEVAALEKEVAALEKEVAALEKEVAALEK
In the case of B1, in experiment [1], the “T cell directed cytotoxicity EC50, CHO-CDh3 (24 h), LDH release, human PBMC E:T 30:1” value amounted to 0.309 nM; the “T cell directed cytotoxicity EC50, H1650 (24 h), LDH release, human PBMC E:T 30:1” value turned out to be 4.1 nM; the “T cell directed cytotoxicity EC50, H1650 (40 h), LDH release, human PBMC E:T 30:1” value amounted to 1.12 nM.

B2: 180 EK-DART (bispecific antibody)
chain 1: B1 chain 1 with L4V
chain 2: B1 chain 2 with Q119E, M120V, L216T, G218D, S219T, G220A, V221N
notes: also called P-CAD 180 EK-DART (CD3-2)
Consider B2, for which, in experiment [2], the Kd – broadly, the equilibrium constant for the complex coming apart – was determined as 0.966 nM; the koff (commonly a measure of how fast the partners let go of each other) is 0.000744 s⁻¹; the association rate constant (kon) (usually a measure of how fast the partners come together) is 771000 M⁻¹ s⁻¹.

B3: 35 EK-DART (P-CAD 35 x CD3-2) (bispecific antibody)
chain 1: B1 chain 1 with Y99V, T103G, V107L
chain 2: B1 chain 2 with Q119E, M120V, L216T, G218D, S219T, G220A, V221S
For B3, in experiment [3], the “T cell directed cytotoxicity EC50, H1650 LDH 24 hr 30:1 D41183” value worked out at 0.102 nM and the “T cell directed cytotoxicity EC50, HCT116 Luc 48 hr 10:1 D43905” value was found to be 0.205 nM. In experiment [1], the “T cell directed cytotoxicity EC50, CHO-CDh3 (24 h), LDH release, human PBMC E:T 30:1” value was 0.0398 nM; the “T cell directed cytotoxicity EC50, H1650 (24 h), LDH release, human PBMC E:T 30:1” value was found to be 0.501 nM; the “T cell directed cytotoxicity EC50, H1650 (40 h), LDH release, human PBMC E:T 30:1” value worked out at 0.0532 nM.

B4: 177 EK-DART (bispecific antibody)
chain 1: B1 chain 1
chain 2: B1 chain 2 with Q119E, M120V, L216T, G218D, S219T, G220A, V221N
notes: the K-coil chain is assembled from parts with CD3-2 VH
In experiment [2], B4 had a Kd of 0.483 nM, a koff of 0.000383 s⁻¹ and a kon of 802000 M⁻¹ s⁻¹.

B5: 154 EK-DART (P-CAD 154 x CD3-2) (bispecific antibody)
chain 1: B1 chain 1 with A98S
chain 2: B1 chain 2 with Q119E, M120V, L216T, G218D, S219T, G220A, V221T
Take B5: in experiment [3], the “T cell directed cytotoxicity EC50, H1650 LDH 24 hr 30:1 D41183” value was 0.0107 nM and the “T cell directed cytotoxicity EC50, HCT116 Luc 48 hr 10:1 D43905” value is 0.0166 nM.

B6: 179 EK-DART (bispecific antibody)
chain 1: B1 chain 1 with S26R, N52S, A98S, Y99W, T103G, V107L
chain 2: B1 chain 2 with Q119E, M120V, L216T, G218D, S219T, G220A, V221N
Regarding B6, in experiment [2], the Kd is 4.17 nM, the koff stood at 0.00458 s⁻¹ and the on-rate (kon) was determined as 1.11e+06 M⁻¹ s⁻¹.

B7: 177 EK-DART (P-CAD 177 x CD3-2) (bispecific antibody)
chain 1: B1 chain 1
chain 2: B1 chain 2 with Q119E, M120V, L216T, G218D, S219T, G220A, V221N
On to B7, for which, in experiment [3], the “T cell directed cytotoxicity EC50, H1650 LDH 24 hr 30:1 D41183” value was found to be 0.0011 nM and the “T cell directed cytotoxicity EC50, HCT116 Luc 48 hr 10:1 D43905” value was 0.0007 nM.

B8: 165 EK-DART (P-CAD 165 x CD3-2) (bispecific antibody)
chain 1: B1 chain 1 with T81A
chain 2: B1 chain 2 with Q119E, M120V, L216T, G218D, S219T, G220A, V221N
As for B8, in experiment [3], the “T cell directed cytotoxicity EC50, H1650 LDH 24 hr 30:1 D41183” value came to 0.0011 nM and the “T cell directed cytotoxicity EC50, HCT116 Luc 48 hr 10:1 D43905” value worked out at 0.0015 nM.

B9: 180 EK-DART (P-CAD 180 x CD3-2) (bispecific antibody)
chain 1: B1 chain 1 with L4V
chain 2: B1 chain 2 with Q119E, M120V, L216T, G218D, S219T, G220A, V221N
For B9, in experiment [3], the “T cell directed cytotoxicity EC50, H1650 LDH 24 hr 30:1 D41183” value was 0.0016 nM and the “T cell directed cytotoxicity EC50, HCT116 Luc 48 hr 10:1 D43905” value was found to be 0.0018 nM.

B10: 179 EK-DART (P-CAD 179 x CD3-2) (bispecific antibody)
chain 1: B1 chain 1 with S26R, N52S, A98S, Y99W, T103G, V107L
chain 2: B1 chain 2 with Q119E, M120V, L216T, G218D, S219T, G220A, V221N
For B10, in experiment [3], the “T cell directed cytotoxicity EC50, H1650 LDH 24 hr 30:1 D41183” value was 0.0178 nM and the “T cell directed cytotoxicity EC50, HCT116 Luc 48 hr 10:1 D43905” value was 0.0432 nM.

B11: 178 EK-DART (P-CAD 178 x CD3-2) (bispecific antibody)
chain 1: B1 chain 1 with Y99V, T103G, V107L
chain 2: B1 chain 2 with Q119E, M120V, L216T, G218D, S219T, G220A, V221N
As to B11, in experiment [3], the “T cell directed cytotoxicity EC50, H1650 LDH 24 hr 30:1 D41183” value worked out at 0.0008 nM and the “T cell directed cytotoxicity EC50, HCT116 Luc 48 hr 10:1 D43905” value was determined as 0.0018 nM.

B12: 34 EK-DART (P-CAD 34 x CD3-2) (bispecific antibody)
chain 1: B1 chain 1 with L4V, Y99W, T103G, V107L
chain 2: B1 chain 2 with Q119E, M120V, L216T, G218D, S219T, G220A, V221S
For the molecule B12, in experiment [1], the “T cell directed cytotoxicity EC50, CHO-CDh3 (24 h), LDH release, human PBMC E:T 30:1” value stood at 0.737 nM; the “T cell directed cytotoxicity EC50, H1650 (24 h), LDH release, human PBMC E:T 30:1” value stood at 5.6 nM; the “T cell directed cytotoxicity EC50, H1650 (40 h), LDH release, human PBMC E:T 30:1” value stood at 1.6 nM.

B13: 178 EK-DART (bispecific antibody)
chain 1: B1 chain 1 with Y99V, T103G, V107L
chain 2: B1 chain 2 with Q119E, M120V, L216T, G218D, S219T, G220A, V221N
With B13, in experiment [2], binding was characterised by a dissociation constant (Kd) of 1.31 nM, the off-rate constant (koff) is 0.000216 s⁻¹ and the kon came to 167000 M⁻¹ s⁻¹.

B14: 153 EK-DART (P-CAD 153 x CD3-2) (bispecific antibody)
chain 1: B1 chain 1 with A98G, Y99V, T103G, V107L
chain 2: B1 chain 2 with Q119E, M120V, L216T, G218D, S219T, G220A, V221N, D224G
With B14, in experiment [3], the “T cell directed cytotoxicity EC50, H1650 LDH 24 hr 30:1 D41183” value came to 0.0008 nM and the “T cell directed cytotoxicity EC50, HCT116 Luc 48 hr 10:1 D43905” value was 0.0005 nM.

B15: 20 EK-DART (P-CAD 20 x CD3-2) (bispecific antibody)
chain 1: AIQMTQSPSSLSASVGDRVTITCRASQSIGKYLNWYQQIPGKAPKLLIYTASTLQTGVPSRFSGSGSGTDFTLTIVSLQPEDFATYYCQQSFNTPRTFGQGTKVEIKGGGSGGGGEVQLVESGGGLVQPGGSLRLSCAASGFTFNTYAMNWVRQAPGKGLEWVARIRSKYNNYATYYADSVKDRFTISRDDSKNSLYLQMNSLKTEDTAVYYCVRHGNFGNSYVSWFAYWGQGTLVTVSSGGCGGGKVAALKEKVAALKEKVAALKEKVAALKE
chain 2: QAVVTQEPSLTVSPGGTVTLTCRSSTGAVTTSNYANWVQQKPGQAPRGLIGGTNKRAPWTPARFSGSLLGGKAALTITGAQAEDEADYYCALWYSNLWVFGGGTKLTVLGGGGSGGGGEVQLVQSGAEVKKPGASVKVSCKASGYTFTGYYMHWVRQAPGQGLEWMGRINPNSGGTNYAQKFQGRVTMTRDTSISTAYMELSRLRSDDTAVYYCAKGSGSGAFDIWGQGTMVTVSSGGCGGGEVAALEKEVAALEKEVAALEKEVAALEK
In the case of B15, in experiment [1], the “T cell directed cytotoxicity EC50, CHO-CDh3 (24 h), LDH release, human PBMC E:T 30:1” value amounted to 169 nM and the “T cell directed cytotoxicity EC50, H1650 (24 h), LDH release, human PBMC E:T 30:1” value stood at 36.4 nM.
